Measured values: PMC6238587, “Molecular analysis of human Ero1 reveals novel regulatory mechanisms for oxidative protein folding” (Life Science Alliance, 2018)
Numbering of substitutions follows the chain as printed. In names and notes the source's numbering stands.

T1: human Ero1β C100/130A, N-terminal His tag (human, UniProt Q86YB8 34-467, D129V | H465Q | C100/130A | C100/130A)
T1 construct: human Ero1β, mature, residues Q34-R467, natural D129V and H465Q variant; also called CCAA (h.a.); source: E. coli BL21(DE3)ΔtrxAΔtrxC with CyDisCo (Erv1p, PDI) co-expressed; in lysate, and purified
T1 sequence (looked up): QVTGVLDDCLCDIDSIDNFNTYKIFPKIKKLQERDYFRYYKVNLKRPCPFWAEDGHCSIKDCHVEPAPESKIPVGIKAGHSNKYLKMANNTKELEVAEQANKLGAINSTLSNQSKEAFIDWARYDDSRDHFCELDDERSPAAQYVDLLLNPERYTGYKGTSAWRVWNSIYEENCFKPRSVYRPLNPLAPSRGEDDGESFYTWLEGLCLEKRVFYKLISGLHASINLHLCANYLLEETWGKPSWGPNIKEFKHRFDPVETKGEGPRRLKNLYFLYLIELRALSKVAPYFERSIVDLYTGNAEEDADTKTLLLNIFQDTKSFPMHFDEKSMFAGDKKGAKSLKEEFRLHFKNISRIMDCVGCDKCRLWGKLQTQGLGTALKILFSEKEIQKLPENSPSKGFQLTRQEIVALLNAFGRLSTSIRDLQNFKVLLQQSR

T2: human Ero1α C104A/C131A, N-terminal His tag (human, UniProt Q96HE7 24-468, C104A | C131A)
T2 construct: human Ero1α, mature, residues E24-H468; also called CCAA (h.a.); source: E. coli BL21(DE3)ΔtrxAΔtrxC with CyDisCo (Erv1p, PDI) co-expressed; in lysate, and purified
T2 sequence (looked up): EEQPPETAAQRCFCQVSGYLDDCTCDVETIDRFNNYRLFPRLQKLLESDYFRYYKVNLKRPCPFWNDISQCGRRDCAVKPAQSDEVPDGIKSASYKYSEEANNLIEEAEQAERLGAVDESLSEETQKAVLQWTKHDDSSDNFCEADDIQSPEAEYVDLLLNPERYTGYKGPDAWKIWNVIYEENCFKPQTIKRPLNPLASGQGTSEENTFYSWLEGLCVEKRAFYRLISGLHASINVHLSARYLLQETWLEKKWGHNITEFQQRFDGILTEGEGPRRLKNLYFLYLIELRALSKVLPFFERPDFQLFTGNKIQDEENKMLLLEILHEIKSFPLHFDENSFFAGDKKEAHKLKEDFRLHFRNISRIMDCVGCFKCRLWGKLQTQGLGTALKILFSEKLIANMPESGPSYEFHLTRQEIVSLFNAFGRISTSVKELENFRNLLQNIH

B1: human Ero1β, wild type, N-terminal His tag (Q34-R467, natural D129V and H465Q variant) (enzyme, UniProt Q86YB8 34-467, looked up)
chain: T1 sequence (looked up) with A67C, A97C
modifications: (phospho)gluconoylation of the N-terminal His tag, gluconoylated species the major state
notes: human Ero1β, mature, residues Q34-R467, natural D129V and H465Q variant; With co-expressed PDI it purifies as a heterodimer; also called CCCC; source: E. coli BL21(DE3)ΔtrxAΔtrxC with CyDisCo components co-expressed; in lysate, and purified (cobalt IMAC, anion exchange, size exclusion)
B2: human PDI with three consecutive FLAG tag sequences inserted before the ER retention signal, non-His-tagged (enzyme)
chain: not shown
notes: human PDI, mature, codon-optimized; residues after the TEV site probably stay on the protein; also called PDI3FLAG; source: E. coli, purified (cobalt IMAC, TEV protease cleavage, anion exchange); not shown: 3xFLAG, internal (after residue 503), kept; His6, N-terminal, cleaved
B3: human protein disulfide isomerase (PDI), wild type, co-expressed CyDisCo component (enzyme)
chain: not shown
notes: human PDI, wild-type codon-optimized gene of the CyDisCo plasmid pMJS205; also called wild-type PDI; source: E. coli BL21(DE3)ΔtrxAΔtrxC, co-expressed with Ero1 from pMJS205; in lysate, and co-purified with His-tagged Ero1
B4: human PDI, wild type, non-tagged, purified (enzyme)
chain: not shown
B5: human Ero1α, wild type, N-terminal His tag (E24-H468) (enzyme, UniProt Q96HE7 24-468, looked up)
chain: T2 sequence (looked up) with A81C, A108C
modifications: (phospho)gluconoylation of the N-terminal His tag, gluconoylated species the major state
notes: human Ero1α, mature, residues E24-H468; With co-expressed PDI it purifies as a heterodimer; also called endoplasmic reticulum oxidoreductin 1 alpha; CCCC; source: E. coli BL21(DE3)ΔtrxAΔtrxC with CyDisCo components co-expressed; in lysate, and purified (cobalt IMAC, anion exchange, size exclusion)
B6: human PDIp, non-tagged (enzyme, UniProt Q13087 22-525, looked up)
chain: QEQGARSPSEEPPEEEIPKEDGILVLSRHTLGLALREHPALLVEFYAPWCGHCQALAPEYSKAAAVLAAESMVVTLAKVDGPAQRELAEEFGVTEYPTLKFFRNGNRTHPEEYTGPRDAEGIAEWLRRRVGPSAMRLEDEAAAQALIGGRDLVVIGFFQDLQDEDVATFLALAQDALDMTFGLTDRPRLFQQFGLTKDTVVLFKKFDEGRADFPVDEELGLDLGDLSRFLVTHSMRLVTEFNSQTSAKIFAARILNHLLLFVNQTLAAHRELLAGFGEAAPRFRGQVLFVVVDVAADNEHVLQYFGLKAEAAPTLRLVNLETTKKYAPVDGGPVTAASITAFCHAVLNGQVKPYLLSQEIPPDWDQRPVKTLVGKNFEQVAFDETKNVFVKFYAPWCTHCKEMAPAWEALAEKYQDHEDIIIAELDATANELDAFAVHGFPTLKYFPAGPGRKVIEYKSTRDLETFSKFLDNGGVLPTEEPPEEPAAPFPEPPANSTMGSKEEL

Experiments:
[1] = molecular target: B2; assay: pull-down; PDI exchange assay with the redox state of both components fixed by GSSG before mixing; settings: both partners purified
[2] = molecular target: B4; assay: pull-down; PDI exchange assay: 1 μM His-tagged Ero1–PDI heterodimer with non-His-tagged PDI, PDI3FLAG or other PDI family member (1:1 or 10:1), 1 h at RT, 20 mM sodium phosphate pH 7.3, 150 mM NaCl; Ni-NTA spin columns with 10 mM imidazole; reducing SDS–PAGE; settings: both partners purified
[3] = molecular target: B1; assay: as above; settings: both partners purified
[4] = molecular target: B5; assay: as above; settings: both partners purified
[5] = molecular target: B1; assay: pull-down; His-tagged Ero1 co-expressed with untagged PDI (CyDisCo) in E. coli; large-scale purification by cobalt IMAC, anion exchange and size-exclusion chromatography; SDS–PAGE; settings: partners not purified
[6] = molecular target: T1, human Ero1β C100/130A, N-terminal His …; assay: as above; settings: partners not purified
[7] = molecular target: B5; assay: as above; settings: partners not purified
[8] = molecular target: T2, human Ero1α C104A/C131A, N-terminal His …; assay: as above; settings: partners not purified
[9] = molecular target: His-tagged Ero1α–PDI heterodimer (human, UniProt Q96HE7 24-468; P07237 18-508, (phospho)gluconoylation of the N-terminal His tag, gluconoylated species the major state); assay: cell-based or functional assay
His-tagged Ero1α–PDI heterodimer, sequence (P07237 18-508, one chain of several): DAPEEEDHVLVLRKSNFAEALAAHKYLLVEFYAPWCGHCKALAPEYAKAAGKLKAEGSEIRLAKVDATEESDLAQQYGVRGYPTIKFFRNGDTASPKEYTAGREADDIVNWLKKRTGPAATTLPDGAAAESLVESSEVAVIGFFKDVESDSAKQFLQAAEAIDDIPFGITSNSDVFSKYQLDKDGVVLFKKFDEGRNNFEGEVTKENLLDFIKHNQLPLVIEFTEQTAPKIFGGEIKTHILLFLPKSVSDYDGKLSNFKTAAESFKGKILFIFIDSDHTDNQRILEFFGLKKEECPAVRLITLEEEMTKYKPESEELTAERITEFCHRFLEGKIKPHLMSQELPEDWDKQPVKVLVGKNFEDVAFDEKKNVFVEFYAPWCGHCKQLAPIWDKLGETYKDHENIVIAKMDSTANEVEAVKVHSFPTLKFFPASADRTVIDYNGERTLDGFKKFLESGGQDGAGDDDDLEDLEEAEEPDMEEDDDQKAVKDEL

[10] = molecular target: His-tagged Ero1β–PDI heterodimer (human, UniProt Q86YB8 34-467; P07237 18-508, D129V | H465Q, (phospho)gluconoylation of the N-terminal His tag, gluconoylated species the major state); assay: cell-based or functional assay
His-tagged Ero1β–PDI heterodimer, sequence (P07237 18-508, stated change not applied, one chain of several): as the sequence (P07237 18-508, one chain of several) above

Binder: B1
- binding result [1]: binds
- binding result [2]: binds

Binder: B2
- ratio of co-purified PDI3FLAG to wild-type PDI (PDI3FLAG added 1:1) [3]: ~1 PDI3FLAG per wild-type PDI
- wild-type PDI left in the complex with 10-fold PDI3FLAG, percent of the original [3]: ~10%
- ratio of co-purified PDI3FLAG to wild-type PDI (PDI3FLAG added 1:1) [4]: ~1 PDI3FLAG per wild-type PDI
- wild-type PDI left in the complex with 10-fold PDI3FLAG, percent of the original [4]: ~10%

Binder: B3
- stoichiometry N [5]: ~1 PDI per Ero1
- stoichiometry N [6]: 1 PDI per Ero1
- stoichiometry N [7]: ~1 PDI per Ero1
- stoichiometry N [8]: 1 PDI per Ero1

Binder: B4
- acceleration of kcat of oxygen consumption by 10 μM external PDI [9]: 7.1 fold
- acceleration of kcat of oxygen consumption by 10 μM external PDI [10]: 4.8 fold

Binder: B5
- binding result [1]: binds
- binding result [2]: binds

Binder: B6
- acceleration of kcat of oxygen consumption by 10 μM external PDIp [10]: 3.7 fold
